Laboratory results: IntAct's records for PubMed 12128212

B1: Protein daughter of sevenless (Drosophila melanogaster (Fruit fly)), Q9VZZ9 (parent)
chain: MDRTFYEGWLIKSPPTKRIWRARWRRRYFTLKQGEIPEQFCLEYYTDHNCRKLKGVIDLDQCEQVDCGLRLENRKQKFQYMFDIKTPKRTYYLAAETEADMRDWVNCICQVCHLHDTKQSNELPLGAVGADENRTQHTSSSGGLSNSTQNTTTTSLHSSAGTTAPQASVPNAGGSAQLRRPAVIEEQPMPSNAGNNNSDSVYVNTEYSNRETMLCDANFDQQELLSAAQQQPPPSPATALYLNHSALIQAQAAAAAAEQLQQQQQQAARLAVSANGVVRKLPEHLVLTQQTLAEAAAQQHSSVQASPALSTASGPYIPISECFSGSPRFLPGVPLPGADLAIPNNPTTPLNNLDPKFYDTPRSHNNIGLNLTNDQSYSPKITNLSLQQLANNNASKQRSDSDSESVFTDDDEWAHPLPLRENVDRSTRPSDSSIENESFVLTYSQRFSKMPEEGGAIVPPAEKSSKLAGAASLPEAGDQGTLDKLAKVLKNKNNLILDFKENEKIPRDLPQLSDTENTSPAIVARRNAHSAFIEESYDIPRSHQQPYYNVNQLLGERPVTSPHNSNPIAASTPNLMAADLGAVAAISAAANPGLMGEAQAVASSPTSARTLPRHCYTNAAPTKMEGNVFRYDFMEQADCPPVNRKLKPKVAGGLPVVEDKPPEEFPAKPPVGVDQLTNKLGAAQLQQPIGPPSVDRKCKPNAYKLGNSATMSPATRRSSGAPLSMVLPHETDVHSPAAANAFFHETRTLPRQQHRHHPNSPGSMSVQHQRTASAAAAMMSLTAAAAPKQQAAAQTEHKLQYFDLDVTNKPPLLNRSSMSVGNLYSQGGNGASGMRFAGVEAGGARAPVPSSVVYRSVDFVKTEAFKRIREERESSGNK

Variants of: B1
Conditions: with grap_drome drk
With R644K the “effect of a mutation on the interaction” value was “decreasing interaction strength”. For R644K;R696K, the “effect of a mutation on the interaction” value was “disrupting interaction strength”. With R696K the “effect of a mutation on the interaction” value was “decreasing interaction strength”.

Variants of: B1
Conditions: with grap_drome drk
Remark: another data set of the same source
R644K;R696K was tested, and the “effect of a mutation on the interaction” value was “disrupting interaction strength”.
